{"source": "patent US20030134779A1", "about": "“Method and composition for treatment and/or prevention of antibiotic-resistant microorganism infections” (priority 2002, published 2003)", "tested_on": "S. aureus PC-1", "assay": "Cell morphology by transmission electron microscopy", "type": "cell-based, Staphylococcus aureus", "conditions": "exposure to LF or LFC", "protocol": "Bacterial cells were grown overnight on MHA or MHB containing sub-MICs of penicillin G with or without LF or LFC. Microorganisms were prepared for transmission electron microscopy by fixation with glutaraldehyde followed by ferritin labelling. This method allows good- preservation of capsular material. Briefly, bacterial cells grown in the presence or absence of antibiotics were fixed in cacodylate buffer (0.1 M, pH 7.0) containing 5% (v/v) glutaraldehyde, for 2 h at 20° C. Fixed microorganims were suspended in cacodylate buffer and allowed to react with the polycationic ferritin (Sigma Chemicals, St-Louis, Mo.; final concentration 1.0 mg/ml) for 30 min at 20° C. The reaction was slowed down by 10-fold dilution with buffer, and the microorganisms were centrifuged and washed three times in cacodylate buffer. Bacterial cells were then immobilized in 4% (w/v) agar, washed 5 times in cacodylate buffer and post-fixed with 2% (w/v) osmium tetroxide for 2 h. […]\nBacterial cells of PC-1 (a constitutively high producing β-lactamase strain) were grown overnight in MHB containing 8 μg/ml of penicillin G, 16 μg/ml of LFC alone or in combination for 4-h at 37° C. with agitation at 150 rpm. Bacteria cell morphology was evaluated by transmission electron microscopy after fixation and ferritin labelling method as previously described."}
{"molecule": "LF: bovine lactoferrin, 80-kDa iron-binding glycoprotein found in milk (protein, UniProt P24627 20-708, looked up) Lactotransferrin: APRKNVRWCTISQPEWFKCRRWQWRMKKLGAPSITCVRRAFALECIRAIAEKKADAVTLDGGMVFEAGRDPYKLRPVAAEIYGTKESPQTHYYAVAVVKKGSNFQLDQLQGRKSCHTGLGRSAGWIIPMGILRPYLSWTESLEPLQGAVAKFFSASCVPCIDRQAYPNLCQLCKGEGENQCACSSREPYFGYSGAFKCLQDGAGDVAFVKETTVFENLPEKADRDQYELLCLNNSRAPVDAFKECHLAQVPSHAVVARSVDGKEDLIWKLLSKAQEKFGKNKSRSFQLFGSPPGQRDLLFKDSALGFLRIPSKVDSALYLGSRYLTTLKNLRETAEEVKARYTRVVWCAVGPEEQKKCQQWSQQSGQNVTCATASTTDDCIVLVLKGEADALNLDGGYIYTAGKCGLVPVLAENRKSSKHSSLDCVLRPTEGYLAVAVVKKANEGLTWNSLKDKKSCHTAVDRTAGWNIPMGLIVNQTGSCAFDEFFSQSCAPGADPKSRLCALCAGDDQGLDKCVPNSKEKYYGYTGAFRCLAEDVGDVAFVKNDTVWENTNGESTADWAKNLNREDFRLLCLDGTRKPVTEAQSCHLAVAPNHAVVSRSDRAAHVKQVLLHQQALFGKNGKNCPDKFCLFKSETKNLLFNDNTECLAKLGGRPTYEEYLGTEYVTAIANLKKCSTSPLLEACAFLTR", "values": [{"measurement": "shape and size of cells", "value": "affected the shape and the size"}]}
